# Laboratory results reported in patent US20110045489A1, “Polymerases for Incorporating Modified Nucleotides” (NEW ENGLAND BIOLABS, INC., priority 2008, published 2011).
# Tests used:
# Assay type in all cases: biochemical
# modified nucleotide = assay: Screen of DNA polymerase mutants for modified nucleotide incorporation
# Method in brief: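 Purified 9° N exo- DNA polymerase mutants from a library screened for 3′-modified terminator (3′-azido-ddCTP, 3′-amino-ddCTP) incorporation by chain-terminator titration. Efficiency judged from reaction product size; relative efficiency from amount of terminator needed to give the same product spectrum.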
# 3′-amino-ddCTP = assay: Kinetic analysis of 3′-amino-ddCTP incorporation (primer extension, PAGE); conditions: FIG. 3
# Text: (§1) An IR800-dye-labeled synthetic primer 5′-AGTGAATTCGAGCTCGGTACCCGGGGATCCTCTAGAGTCGACCTGCAGGC-3′ (SEQ ID NO:18) was annealed to a template 3′-TCACTTAAGCTCGAGCCATGGGCCCCTAGGAGATCTCAGCTGGACGTCCGGATCCTATACTAATCCC-5′ (SEQ ID NO:19) and used as a substrate. Reaction aliquots were sampled at 10, 30, 60, 120 and 300 seconds and analyzed by 20% denaturing PAGE. Unextended primer (0) and fully extended product (+1) are indicated.
# Furthermore, the same assay was used to measure 3′-amino-ddCTP incorporation by 9° N exo-L408S/Y409A/P410V (FIG. 3) and to measure rates of incorporation (FIG. 4). Examples of mutants that increased modified nucleotide incorporation by at least two-fold were: […]
# 3′-azido-ddCTP = assay: Kinetic analysis of 3′-azido-ddCTP incorporation (primer extension, PAGE)
# Experimental: An IR800-dye-labeled synthetic primer 5′-AGTGAATTCGAGCTCGGTACCCGGGGATCCTCTAGAGTCGACCTGCAGGC-3′ (SEQ ID NO:18) was annealed to a template 3′-TCACTTAAGCTCGAGCCATGGGCCCCTAGGAGATCTCAGCTGGACGTCCGGATCCTATACTAATCCC-5′ (SEQ ID NO:19) and used as a substrate to measure rates of 3′-azido-ddCTP incorporation. Incorporation of varying concentrations of 3′-azido-ddCTP (100, 50, 25, 12.5, 6.25, and 3.125 μM) by 9° N exo-L408S/Y409A/P410V DNA polymerase was monitored over a three-minute time course. Reaction aliquots were sampled at 10, 20, 30, 45, 60, and 180 seconds and analyzed by 20% denaturing PAGE. “S” is the unextended primer and “P” is the fully extended product corresponding to 3′-azido-ddCMP addition at the +1 position.
# as §1
# Linear rates of 3′-azido-ddCTP incorporation derived from these curves are 100 μM: 0.05 s^−1; 50 μM: 0.05 s^−1; 25 μM: 0.05s^−1; 12.5 μM: 0.03s^−1; 6.25 μM: 0.03s^−1; 3.125 μM: 0.02 s^−1.
# An IR800-dye-labeled synthetic primer 5′-AGTGAATTCGAGCTCGGTACCCGGGGATCCTCTAGAGTCGACCTGCAGGC-3′ (SEQ ID NO:18 was annealed to a template 3′-TCACTTAAGCTCGAGCCATGGGCCCCTAGGAGATCTCAGCTGGACGTCCGGATCCTATACTAATCCC-5′ (SEQ ID NO:19) and used as a substrate to measure rates of 3′-azido-ddCTP incorporation over a three-minute time course. The results are shown in FIG. 2. Reaction aliquots were sampled at 10, 20, 30, 45, 60, and 180 seconds and analyzed by 20% denaturing PAGE where “S” indicates the unextended primer and “P” the fully extended product corresponding to 3′-azido-ddCMP addition at the +1 position(B). 9° N exo-L408S/Y409A/P410V incorporation of varying concentrations of 3′-azido-ddCTP was measured over a three-minute time course.
molecule,measurement,setting,value
"9° N exo-L408S/Y409A/P410V: 9° N DNA polymerase mutant (Therminator III™, NEB) (protein, UniProt Q56366 1-775, looked up, variant D141A E143A L408S Y409A P410V) DNA polymerase: MILDTDYITENGKPVIRVFKKENGEFKIEYDRTFEPYFYALLKDDSAIEDVKKVTAKRHGTVVKVKRAEKVQKKFLGRPIEVWKLYFNHPQDVPAIRDRIRAHPAVVDIYEYDIPFAKRYLIDKGLIPMEGDEELTMLAFAIATLYHEGEEFGTGPILMISYADGSEARVITWKKIDLPYVDVVSTEKEMIKRFLRVVREKDPDVLITYNGDNFDFAYLKKRCEELGIKFTLGRDGSEPKIQRMGDRFAVEVKGRIHFDLYPVIRRTINLPTYTLEAVYEAVFGKPKEKVYAEEIAQAWESGEGLERVARYSMEDAKVTYELGREFFPMEAQLSRLIGQSLWDVSRSSTGNLVEWFLLRKAYKRNELAPNKPDERELARRRGGYAGGYVKEPERGLWDNIVYLDFRSSAVSIIITHNVSPDTLNREGCKEYDVAPEVGHKFCKDFPGFIPSLLGDLLEERQKIKRKMKATVDPLEKKLLDYRQRAIKILANSFYGYYGYAKARWYCKECAESVTAWGREYIEMVIRELEEKFGFKVLYADTDGLHATIPGADAETVKKKAKEFLKYINPKLPGLLELEYEGFYVRGFFVTKKKYAVIDEEGKITTRGLEIVRRDWSEIAKETQARVLEAILKHGDVEEAVRIVKEVTEKLSKYEVPPEKLVIHEQITRDLRDYKATGPHVAVAKRLAARGVKIRPGTVISYIVLKGSGRIGDRAIPADEFDPTKHRYDAEYYIENQVLPAVERILKAFGYRKEDLRYQKTKQVGLGAWLKVKGKK",increase of modified nucleotide incorporation,modified nucleotide,at least two-fold
same,concentration of modified nucleotide sufficient for efficient incorporation,3′-amino-ddCTP,10 µM
same,linear rate of 3′-azido-ddCTP incorporation,3′-azido-ddCTP; 3.125 μM 3′-azido-ddCTP,0.02 s⁻¹
same,linear rate of 3′-azido-ddCTP incorporation,3′-azido-ddCTP; 6.25 μM 3′-azido-ddCTP,0.03 s⁻¹
same,linear rate of 3′-azido-ddCTP incorporation,3′-azido-ddCTP; 12.5 μM 3′-azido-ddCTP,0.03 s⁻¹
same,linear rate of 3′-azido-ddCTP incorporation,3′-azido-ddCTP; 25 μM 3′-azido-ddCTP,0.05 s⁻¹
same,linear rate of 3′-azido-ddCTP incorporation,3′-azido-ddCTP; 50 μM 3′-azido-ddCTP,0.05 s⁻¹
same,linear rate of 3′-azido-ddCTP incorporation,3′-azido-ddCTP; 100 μM 3′-azido-ddCTP,0.05 s⁻¹
same,concentration of modified nucleotide sufficient for efficient incorporation,"3′-azido-ddCTP; 3′-azido-ddCTP, FIG. 3",10 µM
same,3′-azido-ddCTP incorporation,3′-azido-ddCTP; after three minutes,~100%
